# T1: PSMGFR C-10 peptide
# T1 peptide: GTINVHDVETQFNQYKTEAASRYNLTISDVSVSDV
# T2: PSMGFR N-30 peptide
# T2 peptide: SVSDVPFPFSAQSGA
# T3: PSMGFR N-19 C-5 peptide
# T3 peptide: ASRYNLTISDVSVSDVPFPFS
# T4: PSMGFR peptide
# T4 construct: also called PSMGFR 45mer
# T4 peptide: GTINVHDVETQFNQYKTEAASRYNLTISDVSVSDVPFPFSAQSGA
# T5: PSMGFR N-10 peptide
# T5 peptide: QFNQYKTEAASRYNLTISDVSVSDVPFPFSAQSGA
# Key:
# [1] = biological target: MUC1* on cancer cells and tumour sections (UniProt P15941); assay: IHC with C2 on untreated HPAFII-wt pancreatic tumors excised from mice
# [2] = biological target: MUC1* on cancer cells and tumour sections (UniProt P15941); assay: IHC with C2 on untreated T47D-wt breast tumors excised from mice
# [3] = biological target: MUC1* on cancer cells and tumour sections (UniProt P15941); assay: IHC with C2 on untreated H1975-wt lung tumors excised from mice
# [4] = biological target: T1, PSMGFR C-10 peptide; assay: ELISA on PSMGFR C-10 peptide; Table 4 grade
# [5] = tested on: T47D; assay: PrestoBlue live/dead cell assay, T47D; assay type: cell-based, human; conditions: Presto Blue; 72-120 hour incubation
# Procedure: (§1) Another method of measuring the killing activity of ADCs against target cancer cells is to use the PrestoBlue live/dead cell assay (ThermoFisher). Target cancer cells were seeded in a black-walled, clear-bottom 96-well tissue culture plate at a density of 5000 cells/well (100 μL of a 50,000 cells/mL stock) and incubated overnight in a 37° C./5% CO2 incubator. ADCs were prepared as a 2× solution in corresponding cancer cell growth media and 100 μL of each concentration was added to target cancer cells. As a positive control (100% killing) cancer cells were treated with 1 μM Taxol instead of ADC. After 72 hour-120 hour incubation in a 37° C./5% CO2 incubator, cell viability was measure by fluorescence using the PrestoBlue HS assay (ThermoFisher). Briefly, after the incubation period, 20 μL of PrestoBlue HS solution was added. Fluorescence (Ex 560 nm/Em 590 nm) was recorded after 30-90 min. incubation using a Tecan plate reader. Percentage viability was determined by PrestoBlue HS staining and normalized to 1 μM taxol treated cells.
# (§2) The normalized fluorescence values were imported into the graph program, Sigma Plot, data plotted as ADC concentration versus normalized fluorescence signal and curve fitted using a four-parameter Hill equation: f=y0+a*x^b/(c^b+x^b) to calculate IC50 values. IC50 values for the ADCs were generally consistent between the xCELLigence and Presto Blue assays.
# [6] = tested on: NCI-H1975; assay: xCELLigence impedance cytotoxicity, NCI-H1975; assay type: cell-based, human; conditions: xCELLigence; 40-120 hours incubation; read-out: IC50, NCI-H1975
# Procedure: (§3) An xCELLigence RTCA MP Instrument (Agilent) was used to assess real-time killing of target cancer cells). In the xCELLigence system, target cancer cells, which are adherent, are plated onto electrode array 96-well plates. Adherent cells insulate the electrode and increase the impedance. The number of adherent cancer cells is directly proportional to impedance. […] Therefore, increasing impedance reflects the growth of the cancer cells and decreasing impedance reflects the killing of the cancer cells.
# (§4) Target Cancer cells (Table 9) were seeded onto a multi-electrode well plate at a density of 5000 cells/well (100 μL of a 50,000 cells/mL stock) and incubated for 24 hr in a 37° C./5% CO2 incubator. ADCs were prepared as a 2× solution in corresponding growth media and 100 μL of each concentration was added to target cells. As a positive control (100% cell killing) cells were treated with either 1% triton or 1 μM Taxol instead of ADC. After 40-120 hours incubation in a 37° C./5% CO2 incubator cell killing was assessed. In this assay, impedance is measured in real-time. When the adherent cancer cells are killed and come off the electrode surface, impedance (insulation) decreases.
# [7] = tested on: T47D xenograft tumors; assay: T47D breast cancer xenograft; assay type: in vivo, NOD/SCID mice; conditions: intraperitoneal; MMAE ADCs 5-10 mg/kg Days 7, 14, 20; deruxtecan/exatecan ADCs 20 mg/kg weekly x7
# Procedure: (§5) For breast cancer xenografts, female NOD/SCID mice (weight 18-22 g, 6-8 weeks old, Charles River Laboratories) previously implanted with a 90-day release estrogen pellet (Innovative Research Laboratories) were subcutaneously injected under isoflurane anesthesia (ISOTHESIA, 250 ml (HENRY SCHEIN, NDC: 11695-6776-2) with one million luciferase-positive T47D breast cancer cells expressing low levels of MUC1*(ATCC) or one million luciferase-positive T47D-MUC1* cells overproducing MUC1* using a BD 26G Insulin Syringes with Detachable Needle (Fisher cat: 329652) or BD 28G Lo-Dose U-100 Insulin Syringes (Fisher cat: 329461).
# (§6) Tumor volume was measured from bioluminescence images acquired with a Xenogen IVIS-Spectrum system (Perkin Elmer). Mice were injected […] into the scruff of the neck with 150 ul, 30 mg/mL, D-Luciferin (XenoLight™ D-Luciferin Potassium Salt; PerkinElmer P/N 122799), placed under isoflurane anesthesia, and photographed within 10 minutes of the Leciferin injection. Data was expressed graphically as Radiance (photons/sec) as a function of days post-tumor implantation.
# (§7) Tumor mass was determined from tumors excised from mice receiving T47D cells on Day 95 and mice receiving T47D-MUC1* cells on Day 96. […]
# [8] = tested on: T47D; assay: xCELLigence impedance cytotoxicity, T47D; assay type: cell-based, human; conditions: xCELLigence; 40-120 hours incubation; read-out: IC50, T47D
# Procedure: as §3, §4
# [9] = tested on: T47D-MUC1*; assay: xCELLigence impedance cytotoxicity, T47D-MUC1*; assay type: cell-based, human; conditions: xCELLigence; 40-120 hours incubation; read-out: IC50, T47D-MUC1*
# Procedure: as §3, §4
# [10] = tested on: H1975; assay: PrestoBlue live/dead cell assay, H1975; assay type: cell-based, human; conditions: Presto Blue; 72-120 hour incubation
# Procedure: as §1, §2
# [11] = tested on: T47D-MUC1*; assay: PrestoBlue live/dead cell assay, T47D-MUC1*; assay type: cell-based, human; conditions: Presto Blue; 72-120 hour incubation
# Procedure: as §1, §2
# [12] = tested on: HPAFII; assay: PrestoBlue live/dead cell assay, HPAFII; assay type: cell-based, human; conditions: Presto Blue; 72-120 hour incubation
# Procedure: as §1, §2
# [13] = tested on: HPAFII-MUC1*; assay: PrestoBlue live/dead cell assay, HPAFII-MUC1*; assay type: cell-based, human; conditions: Presto Blue; 72-120 hour incubation
# Procedure: as §1, §2
# [14] = tested on: T47D-MUC1* xenograft tumors; assay: T47D-MUC1* breast cancer xenograft; assay type: in vivo, NOD/SCID mice; conditions: intraperitoneal; MMAE ADCs 5-10 mg/kg Days 7, 14, 20; deruxtecan/exatecan ADCs 20 mg/kg weekly x7
# Procedure: as §5, §6, §7
# [15] = biological target: T2, PSMGFR N-30 peptide; assay: peptide binding assay (FIGS. 2A, 2B)
# [16] = biological target: T3, PSMGFR N-19 C-5 peptide; assay: peptide binding assay (FIGS. 2A, 2B)
# [17] = biological target: T4, PSMGFR peptide; assay: peptide binding assay (FIGS. 1A, 1B)
# [18] = biological target: T5, PSMGFR N-10 peptide; assay: ELISA on PSMGFR N-10 peptide; Table 4 column 'Binds N-10', grade
Molecule,H-score [1],H-score [2],H-score [3],binding result [4],IC50 [5] [nM],IC50 [6] [nM],growth of T47D xenograft tumors [7],IC50 [8] [nM],IC50 [9] [nM],IC50 [10] [nM],IC50 [11] [nM],IC50 [12] [nM],IC50 [13] [nM],growth of T47D-MUC1* xenograft tumors [14],binding result [15],binding result [16],binding result [17],binding result [18]
"anti-MUC1* antibody C2 (antibody, Monoclonal antibody raised against the PSMGFR peptide; also called mAb C2; IgG1 C2 antibody) VH: EVQLEESGGGLVKPGGSLKLSCAASGFTFSGYAMSWVRQTPEKRLEWVATISSGGTYIYYPDSVKGRFTISRDNAKNTLYLQMSSLRSEDTAMYYCARLGGDNYYEYFDVWGAGTTVTVSSAKTTPPSVYPLAPGSAAQTNSMVTLGCLVKGYFPEPVTVTWNSGSLSSGVHTFPAVLQSDLYTLSSSVTVPSSTWPSETVTCNVAHPASSTKVDKKIVPRDCGCKPCICTVPEVSSVFIFPPKPKDVLTITLTPKVTCVVVDISKDDPEVQFSWFVDDVEVHTAQTQPREEQFNSTFRSVSELPIMHQDWLNGKEFKCRVNSAAFPAPIEKTISKTKGRPKAPQVYTIPPPKEQMAKDKVSLTCMITDFFPEDITVEWQWNGQPAENYKNTQPIMDTDGSYFVYSKLNVQKSNWEAGNTFTCSVLHEGLHNHHTEKSLSHSPGK VL: DIVITQSTASLGVSLGQRATISCRASKSVSTSGYSYMHWYQQRPGQPPKLLIYLASNLESGVPARFSGSGSGTDFTLNIHPVEEEDAATYYCQHSRELPFTFGGGTKLEIKRADAAPTVSIFPPSSEQLTSGGASVVCFLNNFYPKDINVKWKIDGSERQNGVLNSWTDQDSKDSTYSMSSTLTLTKDEYERHNSYTCEATHKTSTSPIVKSFNRNEC",220,10,40,no binding,–,–,–,–,–,–,–,–,–,–,–,–,–,–
"C2 MC-VC-PAB MMAE (conjugate, listed as Mus sp., MC-VC-PAB-MMAE, ADC: anti-MUC1* antibody C2 conjugated via MC-VC-PAB linker to MMAE) heavy: EVQLEESGGGLVKPGGSLKLSCAASGFTFSGYAMSWVRQTPEKRLEWVATISSGGTYIYYPDSVKGRFTISRDNAKNTLYLQMSSLRSEDTAMYYCARLGGDNYYEYFDVWGAGTTVTVSSAKTTPPSVYAKTTPPSVYPLAPGSAAQTNSMVTLGCLVKGYFPEPVTVTWNSGSLSSGVHTFPAVLQSDLYTLSSSVTVPSSTWPSETVTCNVAHPASSTKVDKKIVPRDCGCKPCICTVPEVSSVFIFPPKPKDVLTITLTPKVTCVVVDISKDDPEVQFSWFVDDVEVHTAQTQPREEQFNSTFRSVSELPIMHQDWLNGKEFKCRVNSAAFPAPIEKTISKTKGRPKAPQVYTIPPPKEQMAKDKVSLTCMITDFFPEDITVEWQWNGQPAENYKNTQPIMDTDGSYFVYSKLNVQKSNWEAGNTFTCSVLHEGLHNHHTEKSLSHSPGK light: DIVITQSTASLGVSLGQRATISCRASKSVSTSGYSYMHWYQQRPGQPPKLLIYLASNLESGVPARFSGSGSGTDFTLNIHPVEEEDAATYYCQHSRELPFTFGGGTKLEIKRADAAPTVSADAAPTVSIFPPSSEQLTSGGASVVCFLNNFYPKDINVKWKIDGSERQNGVLNSWTDQDSKDSTYSMSSTLTLTKDEYERHNSYTCEATHKTSTSPIVKSFNRNEC",–,–,–,–,187,23,inhibit the growth,156,1.8,89,2.6,112,63,inhibit the growth,–,–,–,–
"anti-MUC1* antibody 3C2B1 (antibody, V domains shown, Humanised form is m27; also called 32CB1) VH: EVMLVESGGGLVKPGGSLKLSCAASGITFSTYTMSWVRQTPEKRLEWVATISTGGDKTYYSDSVKGRFTISRDNAKNNLYLQMSSLRSEDTALYYCARGTTAMYYYAMDYWGQGTSVTVSS VL: DIVLTQSPASLAVSLGQRATISCRASKSISTSDYNYIHWYQQKPGQPPKLLIYLASNLESGVPARFSGSGSGTDFTLNIHPVEEEDAATYYCQHSRELPLTFGAGTKLELK",–,–,–,no binding,–,–,–,–,–,–,–,–,–,–,binds,binds,binds,binds

# Reference: US20260137799A1, “ANTI-MUC1* ANTIBODY DRUG COMPLEXES AND USES THEREOF” (Minerva Biotechnologies Corporation, priority 2023, published 2026)
